Laboratory results reported in US20110195494A1 (Boehringer Ingelheim, published 2011).

How the values were obtained:
[1] = biological target: T1, full length mouse DLL4 on overexpressing CHO or HEK293 cells (mouse, UniProt Q9JI71 27-686); experiment: FMAT, hNotch1/Fc on CHO-mDLL4, periplasmic extract
T1 construct: whole, on cells; also called CHO-mDLL4; mDLL4
Excerpt: (§1) All calculations are based on the FL1 total signal which comprises the average of the fluorescence per well times the number of counts per well.

[2] = biological target: T2, full length human DLL4 on overexpressing CHO or HEK293 cells (human, UniProt Q9NR61 27-685); experiment: FMAT, hNotch1/Fc on CHO-hDLL4, periplasmic extract
T2 construct: also called CHO-hDLL4; HEK293-hDII4
Excerpt: as §1

T1 sequence (Q9JI71 27-686): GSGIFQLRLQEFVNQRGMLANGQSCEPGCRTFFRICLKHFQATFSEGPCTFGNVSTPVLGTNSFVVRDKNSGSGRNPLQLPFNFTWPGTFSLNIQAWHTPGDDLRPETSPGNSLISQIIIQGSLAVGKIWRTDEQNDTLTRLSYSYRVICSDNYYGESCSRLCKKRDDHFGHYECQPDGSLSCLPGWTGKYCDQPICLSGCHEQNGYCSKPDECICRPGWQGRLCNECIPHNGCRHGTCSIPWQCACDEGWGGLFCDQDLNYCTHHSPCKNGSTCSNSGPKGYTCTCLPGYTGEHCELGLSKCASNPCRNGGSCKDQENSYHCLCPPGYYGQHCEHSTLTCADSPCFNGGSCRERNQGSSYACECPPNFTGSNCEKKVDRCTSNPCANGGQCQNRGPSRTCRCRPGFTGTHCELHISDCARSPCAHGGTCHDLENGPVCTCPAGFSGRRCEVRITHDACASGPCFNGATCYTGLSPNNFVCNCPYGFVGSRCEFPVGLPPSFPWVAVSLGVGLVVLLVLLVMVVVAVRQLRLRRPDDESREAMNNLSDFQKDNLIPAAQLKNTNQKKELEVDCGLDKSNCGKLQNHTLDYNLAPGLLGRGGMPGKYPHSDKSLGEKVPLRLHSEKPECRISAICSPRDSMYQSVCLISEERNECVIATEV
T2 sequence (Q9NR61 27-685 limits assumed): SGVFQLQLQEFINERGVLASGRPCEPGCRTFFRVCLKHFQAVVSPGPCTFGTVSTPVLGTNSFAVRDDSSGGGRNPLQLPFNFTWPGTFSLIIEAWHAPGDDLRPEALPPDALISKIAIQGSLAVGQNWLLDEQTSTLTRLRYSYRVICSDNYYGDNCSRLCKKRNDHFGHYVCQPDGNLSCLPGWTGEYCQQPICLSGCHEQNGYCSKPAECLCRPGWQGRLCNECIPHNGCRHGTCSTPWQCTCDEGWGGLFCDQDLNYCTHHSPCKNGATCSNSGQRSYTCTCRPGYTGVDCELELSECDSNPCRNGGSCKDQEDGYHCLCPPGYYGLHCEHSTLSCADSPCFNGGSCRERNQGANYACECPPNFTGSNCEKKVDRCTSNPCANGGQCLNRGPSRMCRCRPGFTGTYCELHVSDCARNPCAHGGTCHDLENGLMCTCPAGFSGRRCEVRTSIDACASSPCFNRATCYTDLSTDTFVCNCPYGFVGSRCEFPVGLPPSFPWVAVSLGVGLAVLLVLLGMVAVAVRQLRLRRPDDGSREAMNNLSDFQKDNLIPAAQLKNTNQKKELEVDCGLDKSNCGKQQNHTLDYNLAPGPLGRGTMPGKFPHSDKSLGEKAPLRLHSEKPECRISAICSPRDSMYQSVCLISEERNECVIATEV

Row | Binder | FMAT mDLL4 % inhibition [1] [%] | FMAT hDLL4 % inhibition [2] [%]
1 | DLLBII80E08 (VHH, tested as periplasmic extract; also called DLLBII80E8; not shown: C-terminal c-myc tag and His6 tag) VHH: EVQLVESGGGLVQAGGSLTLSCAASGGTFTTYAMGWFRQAPGKEREFVAAVSRFGVSWDYADSVKGRFTISRDNTANTLKLRMNSLKADDTAVYYCAAGGRSFLPFVPAYWGQGTQVTVSS | 82 | 71
2 | DLLBII95F02 (VHH, tested as periplasmic extract; also called DLLBII95F2; not shown: C-terminal c-myc tag and His6 tag) VHH: EVQLVESGGGSVQAGGSLRLSCAASGRTFSSYAMGWFRQAPGKEREFVAAINWSGGYTYYADSVRGRFTISRDNAKNTVYLQMNSLKPEDTAVYYCAAPAPGSSGYEYDYWGQGTQVTVSS | 71 | 81
3 | DLLBII102G04 (VHH, tested as periplasmic extract; also called DLLBII102G4; not shown: C-terminal c-myc tag and His6 tag) VHH: EVQLMESGGGLVQPGGSLRLSCAASGFTFSSYAMSWVRQAPGKGLEWVSRITSGGRTTYRDSVKGRFTISRDNSKNTLYLQMNSLKPEDTALYYCAKARGDIDVYTLSDSRGQGTQVTVSS | 82 | 86
4 | DLLBII115A05 (VHH, also called DLLBII115A5; 115A5; not shown: C-terminal c-myc tag and His6 tag) VHH: EVQLVESGGGLVQPGGSLRLSCAASGFTFGSYDMSWVRRSPGKGPEWVSSINSGGGSTYYADFVKGRFTISRDNAKNTLYLQMNSLKPEDTAVYYCAADRYIRARQGDYWGAYEYDYWGQGTQVTVSS | 84 | 74
5 | DLLBII104B05 (VHH, tested as periplasmic extract; also called DLLBII104B5; not shown: C-terminal c-myc tag and His6 tag) VHH: EVQLVESGGGSVQAGGSLRLSCAASGSISRIDVMAWYRQAPGKERELVASISSGGSTNYADSVKGRFTISREYFKNMMYLQMNSLKFEDTAVYYCNADSRRGGVGNFFRSWGQGTQVTVSS | 78 | 86
6 | DLLBII61F07 (VHH, tested as periplasmic extract; also called DLLBII61F7; not shown: C-terminal c-myc tag and His6 tag) VHH: EVQLVESGGGLVQAGGSLRLSCAASGRTFSRYAMGWFRQAPGKEREFVAAINWSGGSTYYADSVKGRFTISRDNAKNTVYLQMNSLKPEDTAVYDCAASNYYSVYDDRPVMDYWGQGTQVTVSS | 77 | 79
7 | DLLBII112A03 (VHH, tested as periplasmic extract; also called DLLBII112A3; not shown: C-terminal c-myc tag and His6 tag) VHH: EVQLVESGGGLVQPGGSLRLSCAASGIRFSINGMGWYRQAPGKQREAVATITRGGIRDYTDSVKGRFTISRDIARNTVYLQMNNLKPEDSAVYYCNIDIYWGRGTQVTVSS | 97 | 72
8 | DLLBII104A03 (VHH, tested as periplasmic extract; also called DLLBII104A3; not shown: C-terminal c-myc tag and His6 tag) VHH: EVQLVESGGGLVQAGGSLRLSCAASGDIPRIAAMGWYRQAPGKQRELVATVSNAATTRYADSAKGRFTISRDNAKTVSLQMDNLKPEDTGVYYCYSLATTVTPSWVNYWGQGTQVTVSS | 83 | 86
9 | DLLBII101F01 (VHH, tested as periplasmic extract; also called DLLBII101F1; not shown: C-terminal c-myc tag and His6 tag) VHH: EVQLVESGGGLVQAGGSLRLSCAASGRTFSNYAMGWFRQAPGKEREFVAAISWSGGDTYYADSVKGRFTISRDNAKNTVCLQMNSLKPEDTAVYYCAASFQSGAAPGANFYDYWGQGTQVTVSS | 78 | 85
10 | DLLBII47D01 (VHH, tested as periplasmic extract; also called DLLBII47D1; not shown: C-terminal c-myc tag and His6 tag) VHH: EVQLVESGGGLVQPGGSLRLSCAASGFTFDDYAIGWFRQAPGKEREGVSCISSSGSTYYADSVKGRFTISRDNAKNTVYLQMNSLKPEDTAVYYCAIAGASSWCFPPGYWGQGTQVTVSS |  | 87
11 | DLLBII112E07 (VHH, tested as periplasmic extract; also called DLLBII112E7; not shown: C-terminal c-myc tag and His6 tag) VHH: EVQLVESGGGLVQAGGSLRLSCAASGRTVRSYATGWFRQAPGKEREFVAALRWSIGSIASVYYDDSVKGRFTISGDNAENTVYLQMNALKPEDTAIYYCASTTRGRYSALSASAYDYWGQGTQVTVSS | 85 | 80
12 | DLLBII58A11 (VHH, tested as periplasmic extract; not shown: C-terminal c-myc tag and His6 tag) VHH: EVQLVESGGGLVQAGGSLRLSCTTSERTVSRYSMGWFRQAPGKEREAVATISWSGDSTYYADSVKGRFTISRDNTKNTLYLQIDSLKPEDTAVYYCVAKPNLKYGSYWPPRGYDYWGQGTQVTVSS | 73 | 95
13 | DLLBII104C04 (VHH, tested as periplasmic extract; also called DLLBII104C4; not shown: C-terminal c-myc tag and His6 tag) VHH: EVQLVESGGGLVQAGGSLRLSCAAAGSTFSSYVMGWYRQAPGKQRELVAHISTRGITYYADSVKGRFTISRDNAKNTMYLQMNSLKPEDTAVYYCNTRRNFLSNYWGQGTQVTVSS | 83 | 87
14 | DLLBII96C03 (VHH, also called DLLBII96C3; DLLBII96CO3; not shown: C-terminal c-myc tag and His6 tag) VHH: EVQLVESGGGLVQPGGSLRLSCAASGFTFGNYDMSWVRQAPGKGPEWVSAINSGGGDTYYADSVKGRFTISRDNAKNTLYLQMNSLKPEDTAVYYCATPRGWGPTGPHEYGYWGQGTQVTVSS | 83 | 75
15 | DLLBII112A04 (VHH, tested as periplasmic extract; also called DLLBII112A4; not shown: C-terminal c-myc tag and His6 tag) VHH: EVQLVESGGGLVQAGGSLRLSCAAFGRTPYGMGWFRQAPGKEREFVAAITSDGSTNYADSVKGRFTISRDNAKNAVSLQMNSLKPEDTAVYYCTAPYYSDFEGTTTEYDYWGQGTQVTVSS | 90 | 75
16 | DLLBII101H09 (VHH, tested as periplasmic extract; also called DLLBII101H9; not shown: C-terminal c-myc tag and His6 tag) VHH: EVQLVESGGGLVQPGGSLRLSCAASGFTLGYYTIVWFRQAPGKERKGVSCISSRDGSRYYADSVKGRFTISRDNAKNTVYLRMNSLKPEDTAVYYCAAGPDCSSYDYWGQGTQVTVSS | 75 | 87
17 | DLLBII62C11 (VHH, not shown: C-terminal c-myc tag and His6 tag) VHH: EVQLMESGGGLVQPGGSLRLSCVAAGFTFSNYYMSWVRQAPGKGLEWVSVISPDGSNTYYADTVKGRFTISRGNAKNTLFLQMTGLKSEDAAVYYCARGSGSWGVHGQGTQVTVSS | 71 | 74
18 | DLLBII102F08 (VHH, tested as periplasmic extract; also called DLLBII102F8; not shown: C-terminal c-myc tag and His6 tag) VHH: EVQLVESGGGLVQTGDSLRLSCAASGSTFSNYRMGWFRQGPGKEREFVAAIGRNGQNTYYTDSVKGRFTVTRDNAKNMVYLQMNSLKPEDSAVYTCAASLRGWDTTRIDYEYWGQGTQVTVSS | 75 | 85
19 | DLLBII107C03 (VHH, tested as periplasmic extract; also called DLLBII107C3; not shown: C-terminal c-myc tag and His6 tag) VHH: EVQLVESGGGLVQPGGSLRLSCEVSGSIGSVSDMRWYRQAPGLQYELVARITSGSITDYSDSVKGRFTISRDNAKNTVYLQMNSLKPEDTAVYYCNADVQHSAWLKPLTYWGQGTQVTVSS | 80 | 75
20 | DLLBII61F05 (VHH, tested as periplasmic extract; also called DLLBII61F5; not shown: C-terminal c-myc tag and His6 tag) VHH: EVQLVESGGGLVQPGGSLRLSCTASGFTFSSYAMSWVRQAPGKGLEWVSFINKDGSDTGYADSVKGRFTISRDNAKNTMYLQMNSLKPEDTAVYFCETRTSRSPRPRGQGTQVTVSS | 76 | 74
